The assay deals with SARS-COV-2野生型毒株Spike蛋白的RBD (SARS-COV-2野生型毒株, UniProt P0DTC2 319-541). As to the kind of experiment: BLI (Octet), antibody captured on Protein A probes, RBD at 15 nM and 60 nM in solution. For orientation: In BLI a coated tip is dipped into the sample, and binding shifts an interference pattern.

B1: HUR33变体 (antibody, human IgG1, kappa, V domains shown)
VH: QVQLVQSGSELKKPGASVKVSCKASGYTFTDYGMNWVRQAPGQGLEWMGWINTYSGEPTYADDFRGRFVFSLDTSVSTAYLQISSLKAEDTAVYYCARGGNWDWYFDVWGQGTLVTVSS
VL: DIQMTQSPSSLSASVGDRVTITCRASQSVSNFLHWYQQKPGKAPKLLIYYASQSISGVPSRFSGSGSGTDFTLTISSLQPEDFATYYCQQSNTWPLTFGQGTKLEIKR
notes: also called HUR33-1; HUR33 variant
Consider B1, for which the binding result is “binds”.

For the origin of these results see patent CN117643628A (SHANGHAI JUNSHI BIOSCIENCES CO LTD; JUNMENG BIOSCIENCES CO …, dated 2024).
